Data: publication doi:10.1101/2020.10.11.334888 (bioRxiv, 2020)

Biological target: the molecule itself
Assay: cryo-EM structure

B1: FliF in the native flagellar basal body (native MS ring) (natural protein)
chain: MSATASTATQPKPLEWLNRLRANPRIPLIVAGSAAVAIVVAMVLWAKTPDYRTLFSNLSDQDGGAIVAQLTQMNIPYRFANGSGAIEVPADKVHELRLRLAQQGLPKGGAVGFELLDQEKFGISQFSEQVNYQRALEGELARTIETLGPVKSARVHLAMPKPSLFVREQKSPSASVTVTLEPGRALDEGQISAVVHLVSSAVAGLPPGNVTLVDQSGHLLTQSNTSGRDLNDAQLKFANDVESRIQRRIEAILSPIVGNGNVHAQVTAQLDFANKEQTEEHYSPNGDASKATLRSRQLNISEQVGAGYPGGVPGALSNQPAPPNEAPIATPPTNQQNAQNTPQTSTSTNSNSAGPRSTQRNETSNYEVDRTIRHTKMNVGDIERLSVAVVVNYKTLADGKPLPLTADQMKQIEDLTREAMGFSDKRGDTLNVVNSPFSAVDNTGGELPFWQQQSFIDQLLAAGRWLLVLVVAWILWRKAVRPQLTRRVEEAKAAQEQAQVRQETEEAVEVRLSKDEQLQQRRANQRLGAEVMSQRIREMSDNDPRVVALVIRQWMSNDHE
Q: Which “stoichiometry N” value does the source give for B1 here?
A: 34
